Measurements published in patent publication US6680170B2, “Polynucleotides encoding STE20-related protein kinases and methods of use” (Sugen, Inc., priority 1998, dated 2004).
Where no end group is shown, it is not given here.

How the values were obtained:
PAK5 = target: T1, PAK5 (Homo sapiens, UniProt O96013); assay: In vitro kinase assay, activation loop peptides as PAK5 substrates; format: biochemical; settings: for substrate: peptide substrates at 2.5 μM
T1 construct: made in house; host or cells: 293 cells (transient transfection, immunopurified on protein A sepharose) or bacteria (GST fusion)
Experimental: (§1) Three days after transfection with the STE20-related kinase expression contructs, a 10 cm plate of 293 cells was washed with PBS and solubilized on ice with 2 mL PBSTDS containing phosphatase inhibitors (10 mM NaHPO4, pH 7.25, 150 mM NaCl, 1% Triton X-100, 0.5% deoxycholate, 0.1% SDS, 0.2% sodium azide, 1 mM NaF, 1 mM EGTA, 4 mM sodium orthovanadate, 1% aprotinin, 5 μg/mL leupeptin). Cell debris was removed by centrifugation (12000× g, 15 min, 4° C.) and the lysate was precleared by two successive incubations with 50 μL of a 1:1 slurry of protein A sepharose for 1 hour each. One-half mL of the cleared supernatant was reacted with 10 μL of protein A purified kinase-specific antisera (generated from the GST fusion protein or antipeptide antisera) plus 50 μL of a 1:1 slurry of protein A-sepharose for 2 hr at 4° C. The beads were then washed 2 times in PBSTDS, and 2 times in HNTG (20 mM HEPES, pH 7.5/150 mM NaCl, 0,1% Triton X-100, 10% glycerol).
(§2) The immunopurified kinases on sepharose beads were resuspended in 20 μL HNTG plus 30 mM MgCl2, 10 mM MnCl2, and 20 μCi […] (3000 Ci/mmol). The kinase reactions were run for 30 min at room temperature, and stopped by addition of HNTG supplemented with 50 mM EDTA. The samples were washed 6 times in HNTG, boiled 5 min in SDS sample buffer and analyzed by 6% SDS-PAGE followed by autoradiography. Phosphoamino acid analysis was performed by standard 2D methods on ^32P-labeled bands excised from the SDS-PAGE gel.
Similar assays were performed on bacterially expressed GST-fusion constructs of the kinases.
20 mM Hepes pH 7.2, 130 mM KCl, 10 mM MgCl2, 1 mM NaF, 20 mM B-glycerolphosphate, 0.5 mM DTT, 50 μM ATP, 0.5 μCi ^32PyATP.
Substrates: MBP at 0.28 mg/mL and peptide substrates derived from PAK5 activation loop at 2.5 μM.
To aid in the development of in vitro kinase assays for screening small molecule libraries to identify specific inhibitors, the search for specific peptide substrates for PAK5 was undertaken.
The rationale used to design such peptides is based on the hypothesis that upon binding activated small G protein, PAK5 undergoes a conformational change that results in derepression of its kinase activity followed by autophosphorylation on the activation loop resulting in a fully active kinase. The site of autophosphorylation for related family members has been identified by biochemical and/or genetic means (e.g. Wu, C, et al. J.Biol.Chem 270:15984-15992 and Szczepanowska, et al. Proc.Natl.Acad.Sci 94, 8503-8508, 1997). Specific peptide substrates for PAKS were designed from the sequence of the activation loop of this kinase.

PAK4 = target: T2, PAK4 (Homo sapiens, UniProt Q9NQU5); assay: In vitro kinase assay, activation loop peptide as PAK4 substrate; format: biochemical
T2 construct: made in house; host or cells: 293 cells (transient transfection, immunopurified) or bacteria (GST fusion)
Experimental: as §1
as §2, with “Phosphoamino acid analysis was performed by standard 2D methods on ^32P-labeled bands excised from the SDS-PAGE gel.” left out

T1 sequence (O96013 whole entry, the tested form may be a part): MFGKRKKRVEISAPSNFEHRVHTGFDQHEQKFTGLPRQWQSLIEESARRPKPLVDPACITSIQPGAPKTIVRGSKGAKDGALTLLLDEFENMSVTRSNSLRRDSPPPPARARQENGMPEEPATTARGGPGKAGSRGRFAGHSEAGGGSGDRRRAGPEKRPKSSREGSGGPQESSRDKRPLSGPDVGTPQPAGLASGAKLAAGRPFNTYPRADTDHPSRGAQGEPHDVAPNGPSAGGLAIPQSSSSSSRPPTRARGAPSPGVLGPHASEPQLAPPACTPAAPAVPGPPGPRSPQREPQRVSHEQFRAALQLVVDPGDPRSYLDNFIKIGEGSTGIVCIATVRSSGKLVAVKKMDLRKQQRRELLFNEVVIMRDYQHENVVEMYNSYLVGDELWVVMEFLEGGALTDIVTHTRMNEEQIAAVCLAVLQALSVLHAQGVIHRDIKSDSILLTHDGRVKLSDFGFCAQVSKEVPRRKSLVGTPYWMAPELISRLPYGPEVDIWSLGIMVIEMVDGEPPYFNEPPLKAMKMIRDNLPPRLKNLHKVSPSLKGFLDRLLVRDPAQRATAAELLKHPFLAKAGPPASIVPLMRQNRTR
T2 sequence (Q9NQU5 whole entry, the tested form may be a part): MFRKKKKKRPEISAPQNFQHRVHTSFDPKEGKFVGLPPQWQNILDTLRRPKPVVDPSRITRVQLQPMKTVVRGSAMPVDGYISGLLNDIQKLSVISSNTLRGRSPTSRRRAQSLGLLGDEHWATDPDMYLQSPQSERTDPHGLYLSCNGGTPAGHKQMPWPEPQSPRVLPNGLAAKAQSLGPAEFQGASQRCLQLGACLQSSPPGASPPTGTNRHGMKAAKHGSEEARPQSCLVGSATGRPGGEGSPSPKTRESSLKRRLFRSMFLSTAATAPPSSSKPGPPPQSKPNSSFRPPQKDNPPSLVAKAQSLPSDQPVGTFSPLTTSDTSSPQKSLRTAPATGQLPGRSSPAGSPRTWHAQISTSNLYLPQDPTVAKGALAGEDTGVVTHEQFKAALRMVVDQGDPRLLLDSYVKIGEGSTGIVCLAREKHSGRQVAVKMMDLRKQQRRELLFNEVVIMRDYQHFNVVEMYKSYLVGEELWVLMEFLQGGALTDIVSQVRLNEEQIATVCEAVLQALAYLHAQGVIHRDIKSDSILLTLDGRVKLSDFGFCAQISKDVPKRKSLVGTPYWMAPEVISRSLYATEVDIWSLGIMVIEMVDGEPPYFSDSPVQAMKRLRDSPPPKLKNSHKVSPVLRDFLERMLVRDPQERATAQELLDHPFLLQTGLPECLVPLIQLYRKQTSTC

| Substance | Notes: substrate quality relative to MBP or other peptides (PAK5) | substrate (PAK5) | further results |
| --- | --- | --- | --- |
| RRNTFIGTPYWMAPE (also: phosphorylated residue) [Peptide 8, phosphorylated residue marking not visible] | Better than 7 | – | – |
| (C) RRKSLVGTPYWMAPE [2] (CRRKSLVGTPYWMAPE; also: phosphorylated residue) [Peptide 2, phosphorylated residue marking not visible] | – | yes | Km (PAK5; Notes column): 1 to 10 µM |
| KRNTFVGTPFWMAPE [Peptide 5] | – | poor | – |
| PANSFVGTPYWMAPE [Peptide 6] | – | poor | – |
| (C) RRKSLVGTPYWMAPE [1] (CRRKSLVGTPYWMAPE; N-terminal cysteine) [Peptide 1] | Equally well as MBB | yes | – |
| (C) RRKSLVGTPYWMAPE [3] (CRRKSLVGTPYWMAPE; also: phosphorylated residue) [Peptide 3, phosphorylated residue marking not visible] | – | no | – |
| RRNTFIGTPYWMAPE [Peptide 7] | – | poor | – |
| (C) RRKSLVGTPYWMAPE (CRRKSLVGTPYWMAPE; N-terminal cysteine) [Peptide 10] | – | – | Notes: Km for PAK4 compared with PAK5 (PAK4): Same Km as phosph. by PAK5; substrate (PAK4): yes |
| KRKSFIGTPYWMAPE [Peptide 4] | Similiar to peptide 1 | yes | – |
| RNKVRKTFVGTPCWMAPE [Peptide 9] | – | poor | – |
